This is an account of results in article PMC9304148.

The target in data set [1] is CarHCfe (Cystobacter ferrugineus CarH), purified (Cystobacter ferrugineus). As to the kind of experiment: SEC; analytical size exclusion, Superdex200 HR 10/30; 100 ul of 50-100 uM pure apoprotein alone, in the dark; dimer by apparent Mr. Background: Size exclusion chromatography separates by hydrodynamic size, large species first.
For data set [2] the target is unchanged. Put plainly: SEC; analytical size exclusion, Superdex200 HR 10/30; 100 ul of 50-100 uM protein after 15-min incubation with five-fold molar excess of AdoCbl, in the dark; dimer by apparent Mr.
In data set [3] the target is CarHCfu (Cystobacter fuscus CarH), purified (Cystobacter fuscus). As to the kind of experiment: SEC; analytical size exclusion, Superdex200 HR 10/30; 100 ul of 50-100 uM pure apoprotein alone, in the dark; dimer by apparent Mr.
Data set [4] has the same target. As to the kind of experiment: SEC; analytical size exclusion, Superdex200 HR 10/30; 100 ul of 50-100 uM protein after 15-min incubation with five-fold molar excess of AdoCbl, in the dark; dimer by apparent Mr.
For data set [5], the system named is CarHCfu (Cystobacter fuscus DSM 2262 (strain as in the genome table)). As to the kind of experiment: EMSA. Particulars: EMSA: 0.1 M KCl, 10 mM MgCl2, 25 mM Tris-HCl pH 8, 1 mM DTT, 10% glycerol, 200 ng/ul BSA, 1 ug salmon sperm DNA, 1.2 nM probe, AdoCbl 5-fold over protein, 37 °C. (In EMSA bound probe runs differently from free probe, usually more slowly.)

Broadly, the stoichiometry N is a count of units in the complex or per binding partner. A word on the Kd: it is the constant that tells how readily two partners part at equilibrium.

For “CarHCfe (Cystobacter ferrugineus CarH), purified (natural protein)”, the stoichiometry N in data set [1] and in data set [2] was 2 throughout.

Regarding “CarHCfu (Cystobacter fuscus CarH), purified (natural protein)”, the stoichiometry N in data set [3] and in data set [4] was 2 each time. Turning to Pcrt Cfu 170 bp, the Kd in data set [5] was 34.7 nM.
